Laboratory results reported in patent CN109021108A (UNIV NANJING MEDICAL, dated 2018).

Key:
[1] = biological target: T1, GPC3-his蛋白 (UniProt P51654 25-559); assay: ELISA titration, GPC3-his coated at 5 μg/ml, 32A9 IgG from 20 μg/ml in 1:2 dilutions, fitted affinity curve
T1 construct: also called GPC3蛋白; not shown: his tag

[2] = biological target: T2, GPC3 on A431-GPC3细胞 (A431 cells stably transfected with GPC3 cDNA) (UniProt P51654 25-554); assay: flow cytometry titration on A431-GPC3 cells, 32A9 IgG from 60 μg/ml in 1:2 dilutions, fitted affinity curve
T2 construct: whole, on cells; also called GPC3阳性细胞; GPC3阳性靶细胞
T2 sequence (P51654 25-554 limits assumed, form in doubt): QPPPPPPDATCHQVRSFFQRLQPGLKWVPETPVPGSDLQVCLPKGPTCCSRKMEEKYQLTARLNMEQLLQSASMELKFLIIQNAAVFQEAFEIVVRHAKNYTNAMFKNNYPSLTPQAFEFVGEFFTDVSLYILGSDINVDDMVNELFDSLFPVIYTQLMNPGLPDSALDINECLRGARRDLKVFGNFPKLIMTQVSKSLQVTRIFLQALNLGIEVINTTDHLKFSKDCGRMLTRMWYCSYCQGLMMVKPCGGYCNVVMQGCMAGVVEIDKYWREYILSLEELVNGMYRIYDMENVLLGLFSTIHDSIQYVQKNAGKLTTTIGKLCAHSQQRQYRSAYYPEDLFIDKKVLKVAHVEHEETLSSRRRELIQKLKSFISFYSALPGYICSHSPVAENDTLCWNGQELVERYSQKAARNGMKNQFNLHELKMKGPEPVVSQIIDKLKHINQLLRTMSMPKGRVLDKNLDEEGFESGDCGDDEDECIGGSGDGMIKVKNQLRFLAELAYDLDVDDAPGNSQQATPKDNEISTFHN

T1 sequence (P51654 25-559 limits assumed): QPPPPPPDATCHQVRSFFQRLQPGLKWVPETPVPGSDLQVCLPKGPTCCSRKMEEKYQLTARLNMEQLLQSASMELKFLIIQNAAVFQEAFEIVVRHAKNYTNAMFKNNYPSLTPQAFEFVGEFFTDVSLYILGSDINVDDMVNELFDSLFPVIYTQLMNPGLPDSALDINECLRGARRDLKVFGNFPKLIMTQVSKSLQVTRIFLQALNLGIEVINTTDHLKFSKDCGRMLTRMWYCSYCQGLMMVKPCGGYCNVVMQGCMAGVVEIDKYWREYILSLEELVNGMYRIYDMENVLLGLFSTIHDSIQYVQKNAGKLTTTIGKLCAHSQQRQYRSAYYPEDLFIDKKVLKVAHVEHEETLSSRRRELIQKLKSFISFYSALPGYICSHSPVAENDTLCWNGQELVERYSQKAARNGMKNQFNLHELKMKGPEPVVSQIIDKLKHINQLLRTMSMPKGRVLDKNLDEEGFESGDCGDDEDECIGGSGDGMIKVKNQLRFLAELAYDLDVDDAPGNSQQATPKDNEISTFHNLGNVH

B1: 32A9IgG重组蛋白 (抗体32A9, anti-GPC3 fully human antibody, IgG form) (antibody, V domains shown)
VH: EVQLLESGGGLVQPGGSLRLSCAASGFTFSSYAMSWVRQAPGKGLEWVSGIAYNGASTAYADSVKGRFTISRDNSKNTLYLQMNSLRAEDTAVYYCAKSAGSFDYWGQGTLVTVSS
VL: DIQMTQSPSSLSASVGDRVTITCRASQSISSYLNWYQQKPGKAPKLLIYSASSLQSGVPSRFSGSGSGTDFTLTISSLQPEDFATYYCQQDYAYPYTFGQGTKVEIK
notes: also called 32A9IgG蛋白
[1]
  Kd: 1.93 nM
[2]
  Kd: 6.25 nM
